From article PMC10950856, “Structure of orthoreovirus RNA chaperone σNS, a component of viral replication factories” (Nature Communications, 2024)
Substitutions are numbered along the chain they refer to. Numbers in names are those of the source. Where “and” joins values, the source holds several entries; their conditions need not be identical. Equal entries are not always repeated.

B1: wildtype (WT) σNS (mammalian orthoreovirus, strain type 3 Dearing) (natural protein)
chain: MASSLRAAISKIKRDDVGQQVCPNYVMLRSSVTTKVVRNVVEYQIRTGGFFSCLAMLRPLQYAKRERLLGQRNLERISTRDILQTRDLHSLCMPTPDAPMSNHQASTMRELICSYFKVDHADGLKYIPMDERYSPSSLARLFTMGMAGLHITTEPSYKRVPIMHLAADLDCMTLALPYMITLDGDTVVPVAPTLSAEQLLDDGLKGLACMDISYGCEVDANSRPAGDQSMDSSRCINELYCEETAEAICVLKTCLVLNCMQFKLEMDDLAHNAAELDKIQMMIPFSERVFRMASSFATIDAQCFRFCVMMKDKNLKIDMRETTRLWTRSASDDSVATSSLSISLDRGRWVAADASDARLLVFPIRV
notes: σNS nonstructural protein of mammalian orthoreovirus, strain type 3 Dearing; synthesized gene in pET28; source: E. coli DE3 cells, purified (Ni-NTA, TEV cleavage, Q column, S200 SEC); not shown: His tag, N-terminal, cleaved
B2: σNS-R6A (native, without Se-Met substitution) (natural protein)
chain: B1 chain with R6A
notes: σNS nonstructural protein of mammalian orthoreovirus, strain type 3 Dearing, with R6A; synthesized gene in pET28; Dimer in solution (~80 kDa); The N-terminal arm is disordered in the crystal with bile acid derivatives; also called native σNS-R6A; σNS R6A mutant; source: E. coli DE3 cells, purified (Ni-NTA, TEV cleavage, Q column, S200 SEC); not shown: His tag, N-terminal, cleaved
B3: selenomethionine (Se-Met)-substituted σNS-R6A (natural protein)
chain: B1 chain with R6A
modifications: selenomethionine in place of methionine (Se-Met-substituted; Mse 1 named)
notes: σNS nonstructural protein of mammalian orthoreovirus, strain type 3 Dearing, with R6A; synthesized gene in pET28; Octamer by SEC; helical assembly of dimers in the crystal; Residue 1 (Mse 1) is seen in the structure; also called Se-Met σNS-R6A; source: E. coli B834 cells in medium with Se-Met, purified (Ni-NTA, TEV cleavage, Q column, S200 SEC); not shown: His tag, N-terminal, cleaved
B4: σNS-ΔN17 (σNS lacking the N-terminal 17 residues) (domain or fragment)
chain: GQQVCPNYVMLRSSVTTKVVRNVVEYQIRTGGFFSCLAMLRPLQYAKRERLLGQRNLERISTRDILQTRDLHSLCMPTPDAPMSNHQASTMRELICSYFKVDHADGLKYIPMDERYSPSSLARLFTMGMAGLHITTEPSYKRVPIMHLAADLDCMTLALPYMITLDGDTVVPVAPTLSAEQLLDDGLKGLACMDISYGCEVDANSRPAGDQSMDSSRCINELYCEETAEAICVLKTCLVLNCMQFKLEMDDLAHNAAELDKIQMMIPFSERVFRMASSFATIDAQCFRFCVMMKDKNLKIDMRETTRLWTRSASDDSVATSSLSISLDRGRWVAADASDARLLVFPIRV
notes: σNS nonstructural protein of mammalian orthoreovirus, strain type 3 Dearing, truncated by the N-terminal 17 residues; synthesized gene in pET28; Dimer in solution and in the crystal; source: E. coli DE3 cells, purified (Ni-NTA, TEV cleavage, Q column, S200 SEC); not shown: His tag, N-terminal, cleaved

What was measured:
[1] = molecular target: the molecule itself; test: SEC; S200 16/60-increase column, 10 mM HEPES (pH 8.0), 150 mM NaCl, after anion-exchange chromatography; size of the oligomer from the elution volume
[2] = molecular target: the molecule itself; test: not stated; in solution; the method is not named for this construct (the constructs were purified on an S200 16/60-increase column)

Protein | stoichiometry N [1] | stoichiometry N [2]
B1 | 10 and 8 | –
B2 | 2 | –
B3 | 8 | –
B4 | – | 2
